Measured values taken from US20130251724A1 (GlaxoSmithKline, published 2013).

T1: Human OSM (human, UniProt P13725 26-221)
T1 construct: Recombinant human OSM; also called hOSM; human Oncostatin M
T1 sequence: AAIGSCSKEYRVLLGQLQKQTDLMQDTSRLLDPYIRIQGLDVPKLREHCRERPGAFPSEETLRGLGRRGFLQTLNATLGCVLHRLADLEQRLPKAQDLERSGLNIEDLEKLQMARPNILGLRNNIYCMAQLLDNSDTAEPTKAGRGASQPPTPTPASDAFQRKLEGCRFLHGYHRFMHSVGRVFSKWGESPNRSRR


How the values were obtained:
Human OSM [1] = target: T1, Human OSM; assay: SPR (ProteOn XPR36 or Biacore T100), captured supernatant, OSM as analyte
Description: The initial kinetic analyses for the CDRH3 screen were carried out on the ProteOn XPR36 (Biorad Laboratories) and certain supernatants were selected for more accurate kinetic analysis on the BiaCore T100.
For the ProteOn analysis, anti-human IgG (GE Healthcare/Biacore BR-1008-39) was coupled to a GLM chip (Biorad Laboratories 176-5012) by primary amine coupling. The CDRH3 variants were captured directly on to this surface and recombinant human OSM was passed over the captured antibody surface at 256, 64, 16, 4 and 1 nM, with a buffer injection alone (i.e. 0 nM) used to double reference the binding curves. Following the OSM binding event, the capture surfaces were regenerated: with 3M MgCl₂ the regeneration removed the previously captured antibody ready for another cycle of capture and binding analysis. The data was then fitted to the 1:1 model (with mass transport) inherent to the ProteOn analysis software. The run was carried out using HBS-EP (Biacore/GE-Healthcare BR-1006-69) and the analysis temperature was 25° C.
A similar method was used for analysis of constructs using the Biacore T100, anti-human IgG (GE Healthcare/Biacore BR-1008-39) was coupled to a CM5 chip (GE Healthcare/Biacore BR-1006-68) by primary amine coupling, antibodies were captured on this surface and recombinant human OSM was passed over the captured antibody surface at 256, 64, 16, 4 and 1 nM, with a buffer injection alone (i.e. 0 nM) used to double reference the binding curves. Regeneration was by using pulses of 3M 3M MgCl₂ or 100 mM phosphoric acid or using both reagents. The data was fitted to the 1:1 model inherent to the Biacore T100 analysis software. The run was carried out using HBS-EP (Biacore/GE-Healthcare BR-1006-69) and the analysis temperature was 25° C.

Human OSM [2] = target: T1, Human OSM; assay: BIAcore kinetics, transfection supernatant

Row | Kd (Human OSM [1]) | Kd (Human OSM [2]) | koff (Human OSM [2]) | kon (Human OSM [2]) | Binder
1 | 0.576 nM |  |  |  | Pos 95 Ala (antibody, V domains shown, the same holds for f2 to f171; also called CDRH3 D95>A) VH: EVQLVESGGGLVQPGGSLRLSCAASGFTFSSYAMSWVRQAPGKGLEWVATISDGGSFTYYLDNVRGRFTISRDNAKNSLYLQMNSLRAEDTAVYYCARAVGHTTFWYFDVWGRGTLVTVSS VL: DIVMTQSPDSLAVSLGERATINCRASKSVSAAGYNFMHWYQQKPGQPPKVLIYYASNLESGVPDRFSGSGSGTDFTLTISSLQAEDVAVYYCLHSREFPFTFGGGTKVEIKR
2 | 0.57 nM |  |  |  | Pos 95 Gln (antibody, V domains shown, also called CDRH3 D95>Q) VH: EVQLVESGGGLVQPGGSLRLSCAASGFTFSSYAMSWVRQAPGKGLEWVATISDGGSFTYYLDNVRGRFTISRDNAKNSLYLQMNSLRAEDTAVYYCARQVGHTTFWYFDVWGRGTLVTVSS VL: DIVMTQSPDSLAVSLGERATINCRASKSVSAAGYNFMHWYQQKPGQPPKVLIYYASNLESGVPDRFSGSGSGTDFTLTISSLQAEDVAVYYCLHSREFPFTFGGGTKVEIKR
3 | 0.488 nM |  |  |  | Pos 96 Gly (antibody, V domains shown, also called CDRH3 V96>G) VH: EVQLVESGGGLVQPGGSLRLSCAASGFTFSSYAMSWVRQAPGKGLEWVATISDGGSFTYYLDNVRGRFTISRDNAKNSLYLQMNSLRAEDTAVYYCARDGGHTTFWYFDVWGRGTLVTVSS VL: DIVMTQSPDSLAVSLGERATINCRASKSVSAAGYNFMHWYQQKPGQPPKVLIYYASNLESGVPDRFSGSGSGTDFTLTISSLQAEDVAVYYCLHSREFPFTFGGGTKVEIKR
4 | 0.568 nM |  |  |  | Pos 95 Leu (antibody, V domains shown, also called CDRH3 D95>L) VH: EVQLVESGGGLVQPGGSLRLSCAASGFTFSSYAMSWVRQAPGKGLEWVATISDGGSFTYYLDNVRGRFTISRDNAKNSLYLQMNSLRAEDTAVYYCARLVGHTTFWYFDVWGRGTLVTVSS VL: DIVMTQSPDSLAVSLGERATINCRASKSVSAAGYNFMHWYQQKPGQPPKVLIYYASNLESGVPDRFSGSGSGTDFTLTISSLQAEDVAVYYCLHSREFPFTFGGGTKVEIKR
5 | 0.785 nM |  |  |  | Pos 95 Glu (antibody, V domains shown, also called CDRH3 D95>E) VH: EVQLVESGGGLVQPGGSLRLSCAASGFTFSSYAMSWVRQAPGKGLEWVATISDGGSFTYYLDNVRGRFTISRDNAKNSLYLQMNSLRAEDTAVYYCAREVGHTTFWYFDVWGRGTLVTVSS VL: DIVMTQSPDSLAVSLGERATINCRASKSVSAAGYNFMHWYQQKPGQPPKVLIYYASNLESGVPDRFSGSGSGTDFTLTISSLQAEDVAVYYCLHSREFPFTFGGGTKVEIKR
6 | 0.649 nM |  |  |  | Pos 95 Met (antibody, V domains shown, also called CDRH3 D95>M) VH: EVQLVESGGGLVQPGGSLRLSCAASGFTFSSYAMSWVRQAPGKGLEWVATISDGGSFTYYLDNVRGRFTISRDNAKNSLYLQMNSLRAEDTAVYYCARMVGHTTFWYFDVWGRGTLVTVSS VL: DIVMTQSPDSLAVSLGERATINCRASKSVSAAGYNFMHWYQQKPGQPPKVLIYYASNLESGVPDRFSGSGSGTDFTLTISSLQAEDVAVYYCLHSREFPFTFGGGTKVEIKR
7 | 0.517 nM |  |  |  | Pos 95 Gly (antibody, V domains shown, also called CDRH3 D95>G) VH: EVQLVESGGGLVQPGGSLRLSCAASGFTFSSYAMSWVRQAPGKGLEWVATISDGGSFTYYLDNVRGRFTISRDNAKNSLYLQMNSLRAEDTAVYYCARGVGHTTFWYFDVWGRGTLVTVSS VL: DIVMTQSPDSLAVSLGERATINCRASKSVSAAGYNFMHWYQQKPGQPPKVLIYYASNLESGVPDRFSGSGSGTDFTLTISSLQAEDVAVYYCLHSREFPFTFGGGTKVEIKR
8 | 0.499 nM |  |  |  | Pos 95 His (antibody, V domains shown, also called CDRH3 D95>H) VH: EVQLVESGGGLVQPGGSLRLSCAASGFTFSSYAMSWVRQAPGKGLEWVATISDGGSFTYYLDNVRGRFTISRDNAKNSLYLQMNSLRAEDTAVYYCARHVGHTTFWYFDVWGRGTLVTVSS VL: DIVMTQSPDSLAVSLGERATINCRASKSVSAAGYNFMHWYQQKPGQPPKVLIYYASNLESGVPDRFSGSGSGTDFTLTISSLQAEDVAVYYCLHSREFPFTFGGGTKVEIKR

More lines, now with the values behind:

Row | Binder | Kd (Human OSM [1]) | Kd (Human OSM [2]) | koff (Human OSM [2]) | kon (Human OSM [2])
9 | Humanised 10G8 H0L0 (antibody, V domains shown) VH: EVQLVESGGGLVQPGGSLRLSCAASGFTFSNYAMSWVRQAPGKGLEWVATISDGGSFTYYLDNVRGRFTISRDNAKNSLYLQMNSLRAEDTAVYYCARDVGHTTFWYFDVWGRGTLVTVSS VL: DIVMTQSPDSLAVSLGERATINCRASKSVSAAGYNFMHWYQQKPGQPPKLLIYYASNLESGVPDRFSGSGSGTDFTLTISSLQAEDVAVYYCLHSREFPFTFGGGTKVEIK |  | 0.435 nM | 0.00016 s⁻¹ | 369000 M⁻¹ s⁻¹
10 | Humanised 10G8 H2L3 (antibody, V domains shown) VH: EVQLVESGGGLVQPGGSLRLSCAASGFTFSNYAMSWVRQAPGKGLEWVATISDGGSFTYYLDNVRGRFTISRDNAKNSLYLQMNSLRAEDTAVYYCARDVGHTTFWYFDVWGSGTLVTVSS VL: DIVMTQSPDSLAVSLGERATINCRASKSVSAAGYNFMHWYQQKPGQPPKLLIYYASNLESGVPDRFSGSGSGTDFTLTISSLQAEDVAVYYCLHSREFPFTFGGGTNVEIK |  | 0.398 nM | 0.00015 s⁻¹ | 376000 M⁻¹ s⁻¹
11 | Humanised 10G8 H2L2 (antibody, V domains shown) VH: EVQLVESGGGLVQPGGSLRLSCAASGFTFSNYAMSWVRQAPGKGLEWVATISDGGSFTYYLDNVRGRFTISRDNAKNSLYLQMNSLRAEDTAVYYCARDVGHTTFWYFDVWGSGTLVTVSS VL: DIVMTQSPDSLAVSLGERATINCRASKSVSAAGYNFMHWYQQKPGQPPKLLIYYASNLESGVPDRFSGSGSGTDFTLTISSLQAEDVVVYYCLHSREFPFTFGGGTKVEIK |  | 0.387 nM | 0.000142 s⁻¹ | 368000 M⁻¹ s⁻¹
12 | Humanised 10G8 H0L2 (antibody, V domains shown) VH: EVQLVESGGGLVQPGGSLRLSCAASGFTFSNYAMSWVRQAPGKGLEWVATISDGGSFTYYLDNVRGRFTISRDNAKNSLYLQMNSLRAEDTAVYYCARDVGHTTFWYFDVWGRGTLVTVSS VL: DIVMTQSPDSLAVSLGERATINCRASKSVSAAGYNFMHWYQQKPGQPPKLLIYYASNLESGVPDRFSGSGSGTDFTLTISSLQAEDVVVYYCLHSREFPFTFGGGTKVEIK |  | 0.375 nM | 0.000137 s⁻¹ | 365000 M⁻¹ s⁻¹
13 | Humanised 10G8 H0L3 (antibody, V domains shown) VH: EVQLVESGGGLVQPGGSLRLSCAASGFTFSNYAMSWVRQAPGKGLEWVATISDGGSFTYYLDNVRGRFTISRDNAKNSLYLQMNSLRAEDTAVYYCARDVGHTTFWYFDVWGRGTLVTVSS VL: DIVMTQSPDSLAVSLGERATINCRASKSVSAAGYNFMHWYQQKPGQPPKLLIYYASNLESGVPDRFSGSGSGTDFTLTISSLQAEDVAVYYCLHSREFPFTFGGGTNVEIK |  | 0.388 nM | 0.000145 s⁻¹ | 374000 M⁻¹ s⁻¹
14 | Humanised 10G8 H1L0 (antibody, V domains shown) VH: EMQLVESGGGLVQPGGSLRLSCAASGFTFSNYAMSWVRQAPGKGLEWVATISDGGSFTYYLDNVRGRFTISRDNAKNSLYLQMNSLRAEDTAVYYCARDVGHTTFWYFDVWGRGTLVTVSS VL: DIVMTQSPDSLAVSLGERATINCRASKSVSAAGYNFMHWYQQKPGQPPKLLIYYASNLESGVPDRFSGSGSGTDFTLTISSLQAEDVAVYYCLHSREFPFTFGGGTKVEIK |  | 0.425 nM | 0.000162 s⁻¹ | 381000 M⁻¹ s⁻¹
15 | Humanised 10G8 H1L2 (antibody, V domains shown) VH: EMQLVESGGGLVQPGGSLRLSCAASGFTFSNYAMSWVRQAPGKGLEWVATISDGGSFTYYLDNVRGRFTISRDNAKNSLYLQMNSLRAEDTAVYYCARDVGHTTFWYFDVWGRGTLVTVSS VL: DIVMTQSPDSLAVSLGERATINCRASKSVSAAGYNFMHWYQQKPGQPPKLLIYYASNLESGVPDRFSGSGSGTDFTLTISSLQAEDVVVYYCLHSREFPFTFGGGTKVEIK |  | 0.445 nM | 0.000163 s⁻¹ | 365000 M⁻¹ s⁻¹
16 | Humanised 10G8 H1L3 (antibody, V domains shown) VH: EMQLVESGGGLVQPGGSLRLSCAASGFTFSNYAMSWVRQAPGKGLEWVATISDGGSFTYYLDNVRGRFTISRDNAKNSLYLQMNSLRAEDTAVYYCARDVGHTTFWYFDVWGRGTLVTVSS VL: DIVMTQSPDSLAVSLGERATINCRASKSVSAAGYNFMHWYQQKPGQPPKLLIYYASNLESGVPDRFSGSGSGTDFTLTISSLQAEDVAVYYCLHSREFPFTFGGGTNVEIK |  | 0.344 nM | 0.000127 s⁻¹ | 371000 M⁻¹ s⁻¹
17 | Humanised 10G8 H2L0 (antibody, V domains shown) VH: EVQLVESGGGLVQPGGSLRLSCAASGFTFSNYAMSWVRQAPGKGLEWVATISDGGSFTYYLDNVRGRFTISRDNAKNSLYLQMNSLRAEDTAVYYCARDVGHTTFWYFDVWGSGTLVTVSS VL: DIVMTQSPDSLAVSLGERATINCRASKSVSAAGYNFMHWYQQKPGQPPKLLIYYASNLESGVPDRFSGSGSGTDFTLTISSLQAEDVAVYYCLHSREFPFTFGGGTKVEIK |  | 0.398 nM | 0.000145 s⁻¹ | 363000 M⁻¹ s⁻¹
